From patent publication US20240294601A1

Assays:
DMF5 T cell receptor [1] = experiment: flow cytometry, tetramer titration on Jurkat T-cells transduced with DMF5
DMF5 T cell receptor [2] = experiment: flow cytometry, barcoded tetramer library on Jurkat/MA cells transduced with DMF5

MART-1/HLA-A*02:01 tetramer (from UniProt P61769 21-119) (peptide-MHC)
fold improvement in EC50 relative to photo-exchanged tetramers (DMF5 T cell receptor [1]): 2.6 fold
percent of cells stained (DMF5 T cell receptor [2]): 33%
